{
  "source": "patent US20150111306",
  "about": "“HEMOGLOBIN A1c-SPECIFIC APTAMER, HEMOGLOBIN-SPECIFIC APTAMER, AND APPLICATIONS THEREOF” (National Tsing Hua University, published 2015)",
  "binders": {"B1": {"name": "Hb-specific aptamer SEQ ID NO: 7 (ssDNA)", "DNA": "GGCAGGAAGACAAACACCAGGTGAGGGAGACGACGCGAGTGTTAGATGGTAGCTGTTGGTCTGTGGTGCTGT"}},
  "molecular_target": "Hemoglobin (Hb) (UniProt P69905;P68871 P69905:2-142,P68871:2-147)",
  "sequence (P69905 2-142, chain 1 of 2)": "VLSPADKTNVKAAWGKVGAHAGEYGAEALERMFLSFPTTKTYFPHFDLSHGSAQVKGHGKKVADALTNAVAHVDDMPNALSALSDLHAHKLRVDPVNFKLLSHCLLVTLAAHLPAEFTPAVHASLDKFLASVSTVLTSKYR",
  "sequence (P68871 2-147, chain 2 of 2)": "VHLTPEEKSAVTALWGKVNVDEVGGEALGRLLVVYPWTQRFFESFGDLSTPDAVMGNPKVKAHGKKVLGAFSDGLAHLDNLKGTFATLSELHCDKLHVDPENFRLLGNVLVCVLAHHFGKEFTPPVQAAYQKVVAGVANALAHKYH",
  "assay": "pulldown; biotin-aptamer streptavidin bead sandwich chemiluminescence in blood, R2=0.9821",
  "conditions": "tags: conjugated to magnetic beads; also captured from blood; chain copies: alpha2beta2 tetramer (inferred); label: biotin (blood detection assay); stem-loop (MFOLD, -9.67 kcal/mol)",
  "excerpt": "The detection of this embodiment is also a two-antibody assay; therefore, please refer to Example 2 for the detection process. In this embodiment, the nucleic acid sequence of SEQ ID NO: 7 with lower free energy was used as the aptamer. The aptamer was labeled by biotin and was used to replace the anti-Hb antibody in the two-antibody assay. The surface of the magnetic bead used was also conjugated with streptavidin. Upon mixing with blood, the hemoglobin-specific aptamer would bind to hemoglobin in blood. After a magnetic field was applied and the unbound substances were washed away, an acridinium ester-labeled anti-Hb antibody was added. The acridinium ester-labeled anti-Hb antibody produces chemiluminescense, thus, can be detected using luminometer.",
  "data": [
    {"binder": "B1", "values": [
      {"measurement": "binding result", "value": "binds"}
    ]}
  ]
}
